Test results as given in article PMC10347550, “Cyclic Ruthenium-Peptide Conjugates as Integrin-Targeting Phototherapeutic Prodrugs for the Treatment of Brain Tumors” (Journal of the American Chemical Society, 2023).
pEC50: −log10 of the molar value. Like-named read-outs stand apart in the source and are kept apart here.

Key:
[1] = tested on: U87MG spheroids; experiment: 3D tumor spheroid viability assay, CellTiter-Glo 3D; type: cell-based, human; conditions: U87MG 3D spheroids; for pEC50: CellTiter-Glo 3D at 96 h, n = 3
Procedure: The spheroids were incubated further under normoxia. […] After 30 min of shaking on an IKA Vibrax shaker at 500 rpm at room temperature, the luminescence in each well was measured with a Tecan microplate reader. […] All experiments were conducted in three biologically independent replicates.

[2] = Nanoaggregation in Opti-MEM by DLS and TEM; type: physicochemical; conditions: dark; for DLS size distribution: 24 h
Procedure: DLS was used to determine the distribution of particles in complex solutions (50 μM) in Opti-MEM (Gibco complete medium 11058-021, supplemented with 0.2% v/v penicillin/streptomycin (P/S), and 1% v/v glutamine) with or without 2.5% fetal calf serum (FCS) proteins via a ZEN1600 Zetasizer Nano instrument (Malvern Instruments Limited) operated with a 633 nm laser.
The TEM experiments were carried out with a TEM JEOL 1010:100 kV transmission electron microscope using a Formvar/carbon-coated copper grid (Polysciences Inc.). For the preparation of samples, a 1 mM stock aqua solution was diluted to 50 μM by Opti-MEM, after which, each drop (15 μL) of the complex solution was deposited on a parafilm (Bemis, HS234526C). The grids (Electron Microscopy Sciences, 71137) were placed on top of the drops for 5 min and then the excess liquid on the grid was removed with filter paper and air dried for 2 h for the TEM measurement. The TEM measurements were carried out under vacuum conditions.

[3] = tested on: U87MG cells; experiment: Apopxin/Nuclear Green DCS1 double-staining cell death mode study; type: cell-based, human; conditions: 20 μM, 24 h incubation, 1 h after green light (13.1 J/cm^2), flow cytometry
Procedure: After 24 h of incubation, one plate labeled light was irradiated for 20 min using 520 nm green light (13.1 J/cm^2), and then both plates were allowed to incubate further for 1, 2, 6, or 24 h in a normoxia incubator. After incubation, the cells were trypsinized, collected, and washed with cold PBS twice. […] Cells after staining were detected by flow cytometry (CytoFLEX flow cytometer) immediately. Control groups with only assay buffer, only buffer and Apopxin Deep Red Indicator, only buffer and Nuclear Green DCS1, and all three were included to be used for gating during data analysis. Parameters APC (638 nm excitation, 660/10 nm emission) and FITC (488 nm excitation, 525/40 nm emission) were used considering their similar excitation/emission wavelength with two detectors Apopxin Deep Red Indicator, Ex/Em = 630/660 nm (apoptosis), and Nuclear Green DCS1, Ex/Em = 490/520 nm (necrosis).

[4] = tested on: U87MG cells; experiment: Cellular Ru uptake by ICP-MS; type: cell-based, human; conditions: dark, 6 h, triplicate wells, ± SEM
Procedure: (§1) U87MG cells (6000), PC-3 cells (5000), and MCF7 cells (8000) were seeded in 96-well plates, each well containing 100 μL of Opti-MEM. After 24 h, 12.5 μM drugs dissolved in Opti-MEM were added to each well and the plates were incubated in a normoxic or hypoxic incubator for 6 h. After that, the drug-containing medium was removed from each well, which was washed with PBS buffer once. Then, cells were stained by Nuclear Blue (Invitrogen, R37605) for 30 min to stain all nuclei (2 drops/mL medium). After this, the dye was thereafter removed and replaced with fresh medium. The entire well was imaged with 10× objective magnification and 7 × 6 montage using epifluorescence on a Nikon TiE2000 widefield microscope with a perfect focus system and automated xy-stage. The cell number of every well was analyzed by counting the nuclei using Image-Pro Analyzer 7.0. Thereafter, the medium was removed and the cells were digested by adding 100 μL of 65% HNO3 for 30 min at room temperature. The cell lysates were transferred into a 96-deep well plate (Eppendorf, E951033502), followed by the addition of 0.9 mL of MilliQ water into each well, and the plate was then mixed well with a 1000 μL Eppendorf pipette.
(§2) The ruthenium concentration was measured in each sample by ICP-MS (NexION 2000, PerkinElmer), providing the metal content in each well in ppb. Combining the cell numbers and Ru uptake, averaging over technical triplicates, the ruthenium uptake values were finally expressed in μg Ru/million cells.

[5] = tested on: MCF7 cells; experiment: Cellular Ru uptake by ICP-MS; type: cell-based, human; conditions: dark, 6 h, triplicate wells, ± SEM
Procedure: as §1, §2

[6] = tested on: PC-3 cells; experiment: Cellular Ru uptake by ICP-MS; type: cell-based, human; conditions: dark, 6 h, triplicate wells, ± SEM
Procedure: as §1, §2

[7] = tested on: U87MG cells; experiment: Intracellular ROS generation, CellROX Deep Red, flow cytometry; conditions: 15 µM, 24 h
Procedure: The generation of ROS (reactive oxygen species) in U87MG cells was measured using a ROS deep red fluorescence indicator (Abcam, ab186029). U87MG (1 × 10^5, 1 mL) were seeded into 12-well plates and incubated for 24 h in the dark under normoxia. The cells were then treated with 15 μM complexes with Opti-MEM, Λ-[1]Cl2, Δ-[1]Cl2, cisplatin, or Rose Bengal. There are two groups for each drug (dark + light). After 24 h of incubation under normoxia, the plate was washed with cold PBS once, and cells were trypsinized, harvested, and then resuspended in 150 μL of PBS. The cell suspension from the centrifuge tubes was transferred to 96-round-bottom well plates (Thermo Scientific, 268200), and the light group was irradiated for 20 min with 520 nm light (dose = 13.1 J/cm^2). After which, the Cellular ROS Deep Red dye (abcam, ab186029) was added with 1000× dilution, and cells were further stained for 1 h. Untreated cells were maintained as negative controls, whereas a 250 μM tBHP solution in Opti-MEM complete was administered as a positive control for ROS. The levels of intracellular ROS were then determined using the CytoFLEX flow cytometer. Forward versus side scatter (FSC vs SSC) gating was used to select the population of interest and avoid cell debris. A forward scatter height (FSC-H) vs forward scatter area (FSC-A) gating was used for doublet exclusion. Fluorescence measurements were acquired with the APC-A (638 nm excitation, 660/10 nm emission) channel given the known excitation/emission wavelengths of the ROS Deep Red dye (650/675 nm, respectively). All flow cytometry data were processed using FlowLogic 8.5 software.

[8] = Octanol-water partition coefficient (log P); type: physicochemical; conditions: shake-flask, octanol-saturated water / water-saturated octanol, shaken 24 h in the dark, room temperature; Ru in water phase by ICP-MS; ± SD from 4 concentration points
Procedure: Each complex was first dissolved in octanol-saturated water (0.5 mM, 500 μL) and centrifuged (2000 rpm, 5 min) to isolate the undissolved solid. 450 μL of the supernatant was taken out as the stock solution; after that, 5, 10, 50, 100, and 150 μL of solution were added to the 15 mL tube, and more octanol-saturated water was added to adjust the final volume to 1 mL. 1 mL of water-saturated octanol was added further, and the tubes were mildly shaken (Gesellschaft für Labortechnik mbH, type3016) for 24 h under dark conditions. After that, the solutions were centrifuged for 5 min at 2000 rpm at room temperature, and 0.5 mL of the water phase (below phase) was moved to a 15 mL centrifuge tube by an Eppendorf pipette. Then, 0.1 mL of 65% HNO3 was added into the tube using an organic pipette gun, and each solution was shaken for 1 h. 9.9 mL of MilliQ water was added into each tube, making a total volume of 10 mL. To detect the Ru content of the stock solution, 10 μL of each stock solution was mixed with 0.490 mL of 65% HNO3, and the mixture was shaken for 1 h. Then, […] of MilliQ water was added to the tube, making a total volume of 10 mL. ICP-MS measurement was performed using a NexION 2000 from PerkinElmer. The ruthenium content in each well was obtained in ppb. The partition coefficients (log P) were calculated using the following eq 3 [drawing 3] 3
where [complex]total is the concentration of the complex in the control sample (where no water-saturated octanol was added) and [complex]water is the concentration of the complex in the aqueous layer.

[9] = 21% O2, dark, 24 h treatment, read-out: EC50,dark
[10] = 21% O2, green light after 24 h treatment, read-out: EC50,light

Substance | PI (EC50,dark/EC50,light) ([1]; 21% O2) | pEC50 [1, 9] | pEC50 [1, 10] | nanoparticle formation (DLS) ([2]; 50 μM in Opti-MEM with 2.5% FCS, 24 h (Figure S20)) | cell death mode [3] | Ru accumulation ([4]; hypoxia 1% O2, 12.5 µM, listed as L-[1]Cl2) | Ru accumulation ([4]; normoxia 21% O2, 12.5 µM) | Ru accumulation ([5]; MCF7, hypoxia 1% O2, 12.5 µM) | Ru accumulation ([5]; MCF7, normoxia 21% O2, 12.5 µM, listed as L-[1]Cl2) | Ru accumulation ([6]; PC-3, hypoxia 1% O2, 12.5 µM, listed as L-[1]Cl2) | Ru accumulation ([6]; PC-3, normoxia 21% O2, 12.5 µM, listed as L-[1]Cl2) | Ratio of L/D (light/dark ROS ratio) [7] | log P (octanol-water partition coefficient) [8] | DLS size distribution ([2]; 50 μM in Opti-MEM with 2.5% FCS) | DLS size distribution ([2]; 50 μM in Opti-MEM without FCS) | Ru accumulation ([4]; hypoxia 1% O2, 12.5 µM) | Ru accumulation ([5]; MCF7, normoxia 21% O2, 12.5 µM) | Ru accumulation ([6]; PC-3, hypoxia 1% O2, 12.5 µM) | Ru accumulation ([6]; PC-3, normoxia 21% O2, 12.5 µM)
[Ru(Ph2phen)2(κ^S,κ^N-(Ac-MRGDH-NH2))]Cl2 (sidechain bridge or staple) [Λ-[1]Cl2] [cyclic ruthenium-peptide conjugate, Ac-MRGDH-NH2 coordinated via Met S and His N] | 4.9 | 4.43 | 5.12 | Nanoparticles of similar size were observed | died mainly via necrosis | 0.84 ± 0.01 µg Ru/million cells | 0.74 ± 0.01 µg Ru/million cells | 0.31 ± 0.01 µg Ru/million cells | 0.25 ± 0.01 µg Ru/million cells | 0.68 ± 0.01 µg Ru/million cells | 0.55 ± 0.03 µg Ru/million cells | 7.03 | −0.03 ± 0.02 | – | – | – | – | – | –
[Ru(Ph2phen)2(κ^S,κ^N-(Ac-MRGDH-NH2))]Cl2 (sidechain bridge or staple) [Δ-[1]Cl2] [cyclic ruthenium-peptide conjugate, Ac-MRGDH-NH2 coordinated via Met S and His N] | 4.2 | 4.34 | 4.96 | – | died mainly via necrosis | – | 0.73 ± 0.01 µg Ru/million cells | 0.31 ± 0.01 µg Ru/million cells | – | – | – | 8.24 | 0.00 ± 0.02 | around 100 nm | above 1 μm | 0.78 ± 0.01 µg Ru/million cells | 0.21 ± 0.01 µg Ru/million cells | 0.63 ± 0.02 µg Ru/million cells | 0.51 ± 0.01 µg Ru/million cells
